The record followed here is patent US20210238260.

First the molecules themselves.
B1: FIXa variant K293E/R338E/R403E (protein)
chain 1: YNSGKLEEFVQGNLERECMEEKCSFEEAREVFENTERTTEFWKQYVDGDQCESNPCLNGGSCKDDINSYECWCPFGFEGKNCELDVTCNIKNGRCEQFCKNSADNKVVCSCTEGYRLAENQKSCEPAVPFPCGRVSVSQTSKLTR
chain 2: VVGGEDAKPGQFPWQVVLNGKVDAFCGGSIVNEKWIVTAAHCVETGVKITVVAGEHNIEETEHTEQKRNVIRIIPHHNYNAAINKYNHDIALLELDEPLVLNSYVTPICIADEEYTNIFLKFGSGYVSGWGRVFHKGRSALVLQYLRVPLVDRATCLESTKFTIYNNMFCAGFHEGGRDSCQGDSGGPHVTEVEGTSFLTGIISWGEECAMKGKYGIYTKVSEYVNWIKEKTKLT
B2: FIXa variant Y155F/R338E/R403E/E410N (protein)
chain 1: YNSGKLEEFVQGNLERECMEEKCSFEEAREVFENTERTTEFWKQYVDGDQCESNPCLNGGSCKDDINSYECWCPFGFEGKNCELDVTCNIKNGRCEQFCKNSADNKVVCSCTEGYRLAENQKSCEPAVPFPCGRVSVSQTSKLTR
chain 2: VVGGEDAKPGQFPWQVVLNGKVDAFCGGSIVNEKWIVTAAHCVETGVKITVVAGEHNIEETEHTEQKRNVIRIIPHHNYNAAINKYNHDIALLELDEPLVLNSYVTPICIADKEYTNIFLKFGSGYVSGWGRVFHKGRSALVLQYLRVPLVDRATCLESTKFTIYNNMFCAGFHEGGRDSCQGDSGGPHVTEVEGTSFLTGIISWGEECAMKGKYGIYTKVSEYVNWIKNKTKLT
B3: FIXa variant K228N/R338E/R403E (protein)
chain 1: YNSGKLEEFVQGNLERECMEEKCSFEEAREVFENTERTTEFWKQYVDGDQCESNPCLNGGSCKDDINSYECWCPFGFEGKNCELDVTCNIKNGRCEQFCKNSADNKVVCSCTEGYRLAENQKSCEPAVPFPCGRVSVSQTSKLTR
chain 2: VVGGEDAKPGQFPWQVVLNGKVDAFCGGSIVNEKWIVTAAHCVETGVNITVVAGEHNIEETEHTEQKRNVIRIIPHHNYNAAINKYNHDIALLELDEPLVLNSYVTPICIADKEYTNIFLKFGSGYVSGWGRVFHKGRSALVLQYLRVPLVDRATCLESTKFTIYNNMFCAGFHEGGRDSCQGDSGGPHVTEVEGTSFLTGIISWGEECAMKGKYGIYTKVSEYVNWIKEKTKLT
B4: FIXa variant D203N/F205T/R338A (protein)
chain 1: YNSGKLEEFVQGNLERECMEEKCSFEEAREVFENTERTTEFWKQYVDGDQCESNPCLNGGSCKDDINSYECWCPFGFEGKNCELDVTCNIKNGRCEQFCKNSADNKVVCSCTEGYRLAENQKSCEPAVPFPCGRVSVSQTSKLTR
chain 2: VVGGEDAKPGQFPWQVVLNGKVNATCGGSIVNEKWIVTAAHCVETGVKITVVAGEHNIEETEHTEQKRNVIRIIPHHNYNAAINKYNHDIALLELDEPLVLNSYVTPICIADKEYTNIFLKFGSGYVSGWGRVFHKGRSALVLQYLRVPLVDRATCLASTKFTIYNNMFCAGFHEGGRDSCQGDSGGPHVTEVEGTSFLTGIISWGEECAMKGKYGIYTKVSRYVNWIKEKTKLT
B5: FIXa variant R338E/R403E/E410N (protein)
chain 1: YNSGKLEEFVQGNLERECMEEKCSFEEAREVFENTERTTEFWKQYVDGDQCESNPCLNGGSCKDDINSYECWCPFGFEGKNCELDVTCNIKNGRCEQFCKNSADNKVVCSCTEGYRLAENQKSCEPAVPFPCGRVSVSQTSKLTR
chain 2: VVGGEDAKPGQFPWQVVLNGKVDAFCGGSIVNEKWIVTAAHCVETGVKITVVAGEHNIEETEHTEQKRNVIRIIPHHNYNAAINKYNHDIALLELDEPLVLNSYVTPICIADKEYTNIFLKFGSGYVSGWGRVFHKGRSALVLQYLRVPLVDRATCLESTKFTIYNNMFCAGFHEGGRDSCQGDSGGPHVTEVEGTSFLTGIISWGEECAMKGKYGIYTKVSEYVNWIKNKTKLT
B6: FIXa variant D203N/F205T/R338E/R403E (protein)
chain 1: YNSGKLEEFVQGNLERECMEEKCSFEEAREVFENTERTTEFWKQYVDGDQCESNPCLNGGSCKDDINSYECWCPFGFEGKNCELDVTCNIKNGRCEQFCKNSADNKVVCSCTEGYRLAENQKSCEPAVPFPCGRVSVSQTSKLTR
chain 2: VVGGEDAKPGQFPWQVVLNGKVNATCGGSIVNEKWIVTAAHCVETGVKITVVAGEHNIEETEHTEQKRNVIRIIPHHNYNAAINKYNHDIALLELDEPLVLNSYVTPICIADKEYTNIFLKFGSGYVSGWGRVFHKGRSALVLQYLRVPLVDRATCLESTKFTIYNNMFCAGFHEGGRDSCQGDSGGPHVTEVEGTSFLTGIISWGEECAMKGKYGIYTKVSEYVNWIKEKTKLT
B7: FIXa variant Y155F/R318Y/R338E/R403E (protein)
chain 1: YNSGKLEEFVQGNLERECMEEKCSFEEAREVFENTERTTEFWKQYVDGDQCESNPCLNGGSCKDDINSYECWCPFGFEGKNCELDVTCNIKNGRCEQFCKNSADNKVVCSCTEGYRLAENQKSCEPAVPFPCGRVSVSQTSKLTR
chain 2: VVGGEDAKPGQFPWQVVLNGKVDAFCGGSIVNEKWIVTAAHCVETGVKITVVAGEHNIEETEHTEQKRNVIRIIPHHNYNAAINKYNHDIALLELDEPLVLNSYVTPICIADKEYTNIFLKFGSGYVSGWGRVFHKGYSALVLQYLRVPLVDRATCLESTKFTIYNNMFCAGFHEGGRDSCQGDSGGPHVTEVEGTSFLTGIISWGEECAMKGKYGIYTKVSEYVNWIKEKTKLT
B8: FIXa variant D203N/F205T/R318Y (protein)
chain 1: YNSGKLEEFVQGNLERECMEEKCSFEEAREVFENTERTTEFWKQYVDGDQCESNPCLNGGSCKDDINSYECWCPFGFEGKNCELDVTCNIKNGRCEQFCKNSADNKVVCSCTEGYRLAENQKSCEPAVPFPCGRVSVSQTSKLTR
chain 2: VVGGEDAKPGQFPWQVVLNGKVNATCGGSIVNEKWIVTAAHCVETGVKITVVAGEHNIEETEHTEQKRNVIRIIPHHNYNAAINKYNHDIALLELDEPLVLNSYVTPICIADKEYTNIFLKFGSGYVSGWGRVFHKGYSALVLQYLRVPLVDRATCLRSTKFTIYNNMFCAGFHEGGRDSCQGDSGGPHVTEVEGTSFLTGIISWGEECAMKGKYGIYTKVSRYVNWIKEKTKLT
B9: FIXa variant D203N/F205T/R338E (protein)
chain 1: YNSGKLEEFVQGNLERECMEEKCSFEEAREVFENTERTTEFWKQYVDGDQCESNPCLNGGSCKDDINSYECWCPFGFEGKNCELDVTCNIKNGRCEQFCKNSADNKVVCSCTEGYRLAENQKSCEPAVPFPCGRVSVSQTSKLTR
chain 2: VVGGEDAKPGQFPWQVVLNGKVNATCGGSIVNEKWIVTAAHCVETGVKITVVAGEHNIEETEHTEQKRNVIRIIPHHNYNAAINKYNHDIALLELDEPLVLNSYVTPICIADKEYTNIFLKFGSGYVSGWGRVFHKGRSALVLQYLRVPLVDRATCLESTKFTIYNNMFCAGFHEGGRDSCQGDSGGPHVTEVEGTSFLTGIISWGEECAMKGKYGIYTKVSRYVNWIKEKTKLT
B10: FIXa variant D203N/F205T/K228N (protein)
chain 1: YNSGKLEEFVQGNLERECMEEKCSFEEAREVFENTERTTEFWKQYVDGDQCESNPCLNGGSCKDDINSYECWCPFGFEGKNCELDVTCNIKNGRCEQFCKNSADNKVVCSCTEGYRLAENQKSCEPAVPFPCGRVSVSQTSKLTR
chain 2: VVGGEDAKPGQFPWQVVLNGKVNATCGGSIVNEKWIVTAAHCVETGVNITVVAGEHNIEETEHTEQKRNVIRIIPHHNYNAAINKYNHDIALLELDEPLVLNSYVTPICIADKEYTNIFLKFGSGYVSGWGRVFHKGRSALVLQYLRVPLVDRATCLRSTKFTIYNNMFCAGFHEGGRDSCQGDSGGPHVTEVEGTSFLTGIISWGEECAMKGKYGIYTKVSRYVNWIKEKTKLT
B11: FIXa variant R318Y/R338E/R403E (protein)
chain 1: YNSGKLEEFVQGNLERECMEEKCSFEEAREVFENTERTTEFWKQYVDGDQCESNPCLNGGSCKDDINSYECWCPFGFEGKNCELDVTCNIKNGRCEQFCKNSADNKVVCSCTEGYRLAENQKSCEPAVPFPCGRVSVSQTSKLTR
chain 2: VVGGEDAKPGQFPWQVVLNGKVDAFCGGSIVNEKWIVTAAHCVETGVKITVVAGEHNIEETEHTEQKRNVIRIIPHHNYNAAINKYNHDIALLELDEPLVLNSYVTPICIADKEYTNIFLKFGSGYVSGWGRVFHKGYSALVLQYLRVPLVDRATCLESTKFTIYNNMFCAGFHEGGRDSCQGDSGGPHVTEVEGTSFLTGIISWGEECAMKGKYGIYTKVSEYVNWIKEKTKLT
B12: FIXa variant R318Y/R338E/E410N (protein)
chain 1: YNSGKLEEFVQGNLERECMEEKCSFEEAREVFENTERTTEFWKQYVDGDQCESNPCLNGGSCKDDINSYECWCPFGFEGKNCELDVTCNIKNGRCEQFCKNSADNKVVCSCTEGYRLAENQKSCEPAVPFPCGRVSVSQTSKLTR
chain 2: VVGGEDAKPGQFPWQVVLNGKVDAFCGGSIVNEKWIVTAAHCVETGVKITVVAGEHNIEETEHTEQKRNVIRIIPHHNYNAAINKYNHDIALLELDEPLVLNSYVTPICIADKEYTNIFLKFGSGYVSGWGRVFHKGYSALVLQYLRVPLVDRATCLESTKFTIYNNMFCAGFHEGGRDSCQGDSGGPHVTEVEGTSFLTGIISWGEECAMKGKYGIYTKVSRYVNWIKNKTKLT
B13: FIXa variant D203N/F205T/E410N (protein)
chain 1: YNSGKLEEFVQGNLERECMEEKCSFEEAREVFENTERTTEFWKQYVDGDQCESNPCLNGGSCKDDINSYECWCPFGFEGKNCELDVTCNIKNGRCEQFCKNSADNKVVCSCTEGYRLAENQKSCEPAVPFPCGRVSVSQTSKLTR
chain 2: VVGGEDAKPGQFPWQVVLNGKVNATCGGSIVNEKWIVTAAHCVETGVKITVVAGEHNIEETEHTEQKRNVIRIIPHHNYNAAINKYNHDIALLELDEPLVLNSYVTPICIADKEYTNIFLKFGSGYVSGWGRVFHKGRSALVLQYLRVPLVDRATCLRSTKFTIYNNMFCAGFHEGGRDSCQGDSGGPHVTEVEGTSFLTGIISWGEECAMKGKYGIYTKVSRYVNWIKNKTKLT

Factor X (FX), P00742, sequence (P00742 whole entry, looked up): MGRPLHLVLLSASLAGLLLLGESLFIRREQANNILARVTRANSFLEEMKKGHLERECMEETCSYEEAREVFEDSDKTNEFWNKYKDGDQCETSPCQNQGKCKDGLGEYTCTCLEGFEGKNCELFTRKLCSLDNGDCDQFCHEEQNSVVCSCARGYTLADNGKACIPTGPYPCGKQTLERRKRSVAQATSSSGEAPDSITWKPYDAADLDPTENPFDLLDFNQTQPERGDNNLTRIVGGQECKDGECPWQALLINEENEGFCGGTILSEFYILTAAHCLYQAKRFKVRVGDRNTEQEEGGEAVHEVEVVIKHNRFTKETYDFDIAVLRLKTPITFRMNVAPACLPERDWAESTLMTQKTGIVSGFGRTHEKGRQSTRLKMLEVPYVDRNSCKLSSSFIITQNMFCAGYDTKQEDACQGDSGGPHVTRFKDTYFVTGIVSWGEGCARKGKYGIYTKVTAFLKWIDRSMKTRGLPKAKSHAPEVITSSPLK

The data set has as its target Factor X (FX), P00742.
As to B1, the “% of WT kcat/KM” value is given as 36% and the kcat/KM – broadly, the turnover number divided by the Michaelis constant – worked out at 1.7e+07 M⁻¹ s⁻¹.
For B2, the “% of WT kcat/KM” value was 401% and the specificity constant (kcat/KM) was 1.8e+08 M⁻¹ s⁻¹.
Regarding B3, the “% of WT kcat/KM” value is reported as 105% and the kcat/KM is 4.8e+07 M⁻¹ s⁻¹.
On the same counts, the results for B4 are 135% and 6.2e+07 M⁻¹ s⁻¹.
The matching figures for B5: 411% and 1.9e+08 M⁻¹ s⁻¹.
The matching figures for B6: 41% and 1.9e+07 M⁻¹ s⁻¹.
Take B7: the “% of WT kcat/KM” value is reported as 189% and the kcat/KM is 8.7e+07 M⁻¹ s⁻¹.
For the protein B8, the “% of WT kcat/KM” value is 44% and the catalytic efficiency (kcat/KM) was found to be 2e+07 M⁻¹ s⁻¹.
As to B9, the “% of WT kcat/KM” value came to 228% and the kcat/KM is 1e+08 M⁻¹ s⁻¹.
For the protein B10, the “% of WT kcat/KM” value was 30% and the kcat/KM is 1.4e+07 M⁻¹ s⁻¹.
The matching figures for B11: 134% and 6.2e+07 M⁻¹ s⁻¹.
Consider B12, for which the “% of WT kcat/KM” value is 727% and the kcat/KM came to 3.4e+08 M⁻¹ s⁻¹.
On the same counts, the results for B13 are 91% and 4.2e+07 M⁻¹ s⁻¹.
